Results reported in patent US20190016785A1 (published 2019).

Columns and labels:
HBsAg ayw = HBsAg ayw (hepatitis B virus); test: ELISA
HBsAg adr = test: ELISA

B1: HBC34 (antibody, V domains shown)
VH: ELQLVESGGGWVQPGGSQRLSCAASGRIFRSFYMSWVRQAPGKGLEWVATINQDGSEKLYVDSVKGRFTISRDNAKNSLFLQMNNLRVEDTAVYYCAAWSGNSGGMDVWGQGTTVSVSS
VL: SYELTQPPSVSVSPGQTVSIPCSGDKLGNKNVCWFQHKPGQSPVLVIYEVKYRPSGIPERFSGSNSGNTATLTISGTQAMDEAAYFCQTWDSTTVVFGGGTRLTVL
Question: For B1, which EC50 (HBsAg ayw) is on record?
Answer: 0.01 µg/mL

Question: What about the EC50 (HBsAg adr) of the same binder?
Answer: 6 ng/mL
